Assay [1] deals with SARS-CoV-2 S Omicron BA.1, C-terminally truncated, expressed on 293T cells (SARS-CoV-2, Omicron BA.1 (B.1.1.529), strain). Nature of the assay: flow cytometry on cells. Conditions: one partner purified. (In flow cytometry, cells or beads pass a laser one at a time.)
Assay [2] addresses SARS-CoV-2 S Omicron BA.4/BA.5, C-terminally truncated, expressed on 293T cells (SARS-CoV-2, Omicron BA.4/BA.5, strain). Nature of the assay: flow cytometry on cells. The settings on record: one partner purified.
Assay [3] has as its target SD1-RBD of SARS-CoV-2 S, Omicron BA.2.75 (SARS-CoV-2 Omicron BA.2.75 (GenBank …, strain)). Nature of the assay: ELISA. Conditions: both partners purified.
Assay [4] addresses SD1-RBD of SARS-CoV-2 S, Alpha (SARS-CoV-2, Alpha (B.1.1.7), strain). Nature of the assay: ELISA. Conditions: both partners purified.
Assay [5] addresses SD1-RBD of SARS-CoV-2 S, Delta (SARS-CoV-2, Delta (B.1.617.2), strain). Nature of the assay: ELISA. The settings on record: both partners purified. A general note: In an ELISA, binding on a coated surface is turned into a signal by an enzyme label.
Assay [6] concerns the target SD1-RBD of SARS-CoV-2 S, Omicron BA.4/BA.5 (SARS-CoV-2 Omicron BA.4/BA.5 (GenBank …, strain)). Nature of the assay: ELISA. Conditions: both partners purified.
In assay [7] the target is SD1-RBD of SARS-CoV-2 S, Gamma (SARS-CoV-2, Gamma (B.1.1.28.1), strain). Nature of the assay: ELISA. The settings on record: both partners purified.
The target of assay [8] is SD1-RBD of SARS-CoV-2 S, Omicron BA.1 (SARS-CoV-2, Omicron BA.1 (B.1.1.529), strain). Nature of the assay: ELISA. Conditions: both partners purified.
The target in assay [9] is SD1-RBD of SARS-CoV-2 S, Beta (SARS-CoV-2, Beta (B.1.351), strain). Nature of the assay: ELISA. Conditions: both partners purified.
Assay [10] has as its target SD1-RBD of SARS-CoV-2 S, Omicron BA.2 (SARS-CoV-2, Omicron BA.2, strain). Nature of the assay: ELISA. Conditions: both partners purified.
In assay [11] the target is SARS-CoV-2 S-2P ectodomain trimer (ancestral) (SARS-CoV-2 (ancestral, MN908947), stabilised). Nature of the assay: SPR. The settings on record: both partners purified.

B1: hr2.016 monoclonal antibody (IgG) (antibody, V domains shown)
VH: EVQLLESGGGLVQPGGSLRLSCAASGFMFSKYAMTWVRQTPGKGLEWVSVISGGGGSTYYADSVKGRFTISRDNSKNTLYLQMNSLRAEDTAVYYCAKLLVVFVIDYWGQGALVTVSS
VL: EIVLTQSPGTLSLSPGERATLFCRASQSVSSNLAWYQQKPGRAPRLLISGASSRATGIPDRFSGSGSGTDFTLTISRLEPEDFAVYYCQQYGSSPPTFGQGTKVEIK
With B1, the figures for the “fold increase of binding (gMFI) with soluble ACE2” value (“fold increase of binding (gMFI)” below) in assay [1] and in assay [2] were 4.9 fold and 4.6 fold, respectively.

B2: fp.006 monoclonal antibody (IgG) (antibody, V domains shown)
VH: EVQLVESGGGVVQPGGSLRLSCAASGFNFNNYALHWVRQAPGKGLEWVAIISYEARNKKYGVSVMGRFSISRDNSKSIMYLEMNSLRVEDTGVYYCARDLFLSDYDRSGYDPTRGGFDHWGQGTLVTVSS
VL: EIVMTQSPATLSVSPGERATLSCRASQSVSSSLAWYQHRFGQAPRLLISGASTRATGIPGRFSGSGSGTEFTLTISSLQSEDVAVYYCQQYGDWPLVTFGGGTKVEIK
As to B2, the “fold increase of binding (gMFI)” value amounted to 5.3 fold in [1] and 8.2 fold in assay [2].

B3: sd1.040 monoclonal antibody (IgG) (antibody, V domains shown)
VH: QVQLVQSGAEVKKPGASVKVSCKASGYTFTSFYIHWVRQAPGQGLEWMGIIDPSGGSTSYPQKFQGRVTMTRDTSTSTVYMDLSSLRSEDTAVYYCTRDGSAGDNSWFDPWGQGTLVTVSS
VL: not shown
As for B3, the binding result in [3], in assay [4], in assay [5], in assay [6], in assay [7] and in assay [8] was “binds” throughout. Also, the binding result in assay [9] and in assay [10] was “binds” each time.

B4: sd1.040 Fab (Fab, V domains shown)
VH: QVQLVQSGAEVKKPGASVKVSCKASGYTFTSFYIHWVRQAPGQGLEWMGIIDPSGGSTSYPQKFQGRVTMTRDTSTSTVYMDLSSLRSEDTAVYYCTRDGSAGDNSWFDPWGQGTLVTVSS
VL: not shown
A word on the Kd: it is the free concentration of one partner at which half of the binding sites on the other are occupied at equilibrium, for simple one-to-one binding. Higher therefore signals weaker binding. Regarding B4, the Kd in assay [11] was determined as 0.2 nM.

B5: hr2.023 monoclonal antibody (IgG) (antibody, V domains shown)
VH: QVQLVQSGAEVKKPGASVKVSCRASENIFSDSYLHWVRQAPGQGLEWMGIITPSGDKTFYAQQFQGRLTMTRDTPTNTLHMDLRGLTSADTAIYYCARQATKGGWDYWGQGTLVTVSS
VL: EIVLTQSPGTLSLSPGESATLSCRASQSVTRNYLAWYQQQPGQAPRLLIYGASNRATGVPDRFSGSGSGTDFTLTISRLEPEDFAVYYCQQYGSSPPTFIFGPGTKVDIK
As to B5, the “fold increase of binding (gMFI)” value in assay [1] was determined as 5.8 fold; in assay [2], 5.3 fold.
